# B1: Pr46 (dsDNA)
# DNA 1: TTTTTTTATTTATAAACATTATTAAAAAAATATAGATGTTTTGGTTATATTCCTTGTCCTTTATAAATAGAATTATATAAACAAAGGAGGAGGACAAGAG
# DNA 2: CTCTTGTCCTCCTCCTTTGTTTATATAATTCTATTTATAAAGGACAAGGAATATAACCAAAACATCTATATTTTTTTAATAATGTTTATAAATAAAAAAA
# B2: Pr47 (dsDNA)
# DNA 1: TCTTGACCTCGATAAGTGTCGTAAGTCAAGGGTAATTTATATATCAGTGAAAAATAATTACATTTAATCTAATGTTTTTAGAGAGGAGGATGCTATGTTA
# DNA 2: TAACATAGCATCCTCCTCTCTAAAAACATTAGATTAAATGTAATTATTTTTCACTGATATATAAATTACCCTTGACTTACGACACTTATCGAGGTCAAGA
# B3: Pr118 (dsDNA)
# DNA 1: AACCCGTCATATGGCTTGAGTTTATACTCAAGCTTTTTTTATTGGTATATTTATATATATAAATAATTTAATATAATCAAAATGATGGGGGTATGTTACA
# DNA 2: TGTAACATACCCCCATCATTTTGATTATATTAAATTATTTATATATATAAATATACCAATAAAAAAAGCTTGAGTATAAACTCAAGCCATATGACGGGTT
# B4: Pr101 (dsDNA)
# DNA 1: GTACTATACAGCCTGGAGTAG
# DNA 2: CTACTCCAGGCTGTATAGTAC
# B5: Pr119 (dsDNA)
# DNA 1: TTTCAACCACTCCTCTTAGTTTGATTTGGTAAGTTTAGGTCGGTATTTATTATATAATATAAATGAAACATTATATAATGGAAAAATTTCCCAGTAAACT
# DNA 2: AGTTTACTGGGAAATTTTTCCATTATATAATGTTTCATTTATATTATATAATAAATACCGACCTAAACTTACCAAATCAAACTAAGAGGAGTGGTTGAAA
# B6: Pr27 (Pobg) (dsDNA)
# DNA 1: ATACATAAAAGGAGTGTTGAGGCACTCCTTTTTCTTATAATACTGATGAATTTATAATGGTATTTTTGGTAATGCTAATTAAAAGTTTTTAATTAAGTAG
# DNA 2: CTACTTAATTAAAAACTTTTAATTAGCATTACCAAAAATACCATTATAAATTCATCAGTATTATAAGAAAAAGGAGTGCCTCAACACTCCTTTTATGTAT
# Tests used:
# cdPadR1 [1] = target: cdPadR1 (Clostridium difficile R20291, UniProt A0A9R0CDW8 1-109); test: EMSA; 20 mM Tris pH 8.0, 120 mM KCl, 10 mM MgCl2, 5 mM DTT, 12.5% glycerol, 125 ug/mL heparin, room temperature; conditions: protein: recombinant; tags: N-terminal Strep II; chain copies: 2
# cdPadR1 [2] = target: cdPadR1 (Clostridium difficile R20291, UniProt A0A9R0CDW8 1-109); test: EMSA; no significant binding; EMSA: 20 mM Tris pH 8.0, 120 mM KCl, 12.5% glycerol, 10 mM MgCl2, 5 mM DTT, 125 ug/mL heparin (400 ug/mL in competition), room temperature; 8% PAGE in TB; conditions: protein: recombinant; tags: N-terminal Strep II; chain copies: 2; blunt
Binder,binding result (cdPadR1 [1]),binding result (cdPadR1 [2])
B1,binds,
B2,no binding,
B3,binds,
B4,,no binding
B5,binds,
B6,binds,
